Test results published in patent US20250222125A1 (BEIGENE, published 2025).

Key:
[1] = target: T1, cyno FGFR2b on cells (cyno, UniProt A0A2K5TL97 22-821); assay: flow cytometry, cyno FGFR2b OE cells
[2] = target: T1, cyno FGFR2b on cells; assay: flow cytometry, Expi293 cells overexpressing cyno FGFR2b
[3] = target: T2, cyno FGFR2b protein (recombinant) (cyno, UniProt A0A2K5TL97 22-380); assay: ELISA, plate-coated cyno FGFR2b
[4] = target: T2, cyno FGFR2b protein (recombinant); assay: SPR, antibody captured by anti-human Fc, cyno FGFR2b

T1 sequence (A0A2K5TL97 entry or part of it): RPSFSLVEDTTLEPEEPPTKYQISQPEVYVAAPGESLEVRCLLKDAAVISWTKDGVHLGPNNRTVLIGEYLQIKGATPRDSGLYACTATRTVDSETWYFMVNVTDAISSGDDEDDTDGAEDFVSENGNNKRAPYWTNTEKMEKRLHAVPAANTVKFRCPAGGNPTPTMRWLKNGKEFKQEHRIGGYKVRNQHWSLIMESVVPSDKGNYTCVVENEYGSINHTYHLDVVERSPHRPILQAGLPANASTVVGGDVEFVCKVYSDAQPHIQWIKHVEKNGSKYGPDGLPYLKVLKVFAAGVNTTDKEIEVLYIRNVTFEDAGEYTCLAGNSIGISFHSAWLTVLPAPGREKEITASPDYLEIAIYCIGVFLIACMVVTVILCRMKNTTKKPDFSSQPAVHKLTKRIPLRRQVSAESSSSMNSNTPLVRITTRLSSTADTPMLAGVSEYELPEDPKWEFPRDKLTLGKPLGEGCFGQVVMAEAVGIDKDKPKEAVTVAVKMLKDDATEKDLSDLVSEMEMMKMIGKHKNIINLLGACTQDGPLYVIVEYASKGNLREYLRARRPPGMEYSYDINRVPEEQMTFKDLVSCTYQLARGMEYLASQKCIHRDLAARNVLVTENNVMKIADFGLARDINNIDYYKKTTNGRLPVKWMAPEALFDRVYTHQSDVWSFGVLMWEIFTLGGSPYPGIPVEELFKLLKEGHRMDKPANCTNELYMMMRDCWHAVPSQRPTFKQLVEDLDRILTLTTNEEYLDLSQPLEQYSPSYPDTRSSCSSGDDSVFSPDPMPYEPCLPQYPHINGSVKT

EC50 [1] [nM] | EC50 [2] [nM] | Emax (MFI) [2] [MFI] | EC50 [3] [nM] | Emax (A450) [3] [A450] | Kd [4] [nM] | koff [4] [s⁻¹] | kon [4] [M⁻¹ s⁻¹] | Binder
1.55 | 7.93 | 6.88e+06 | 0.0442 | 2.93 | 34 | 0.00272 | 79900 | BGAh9239 (antibody, human IgG1, kappa, V domains shown, also called humanized antibody developed from BGAm1823) VH: QVQLVQSGAEVKKPGSSVKVSCKASGYTFSIYWLNWVRQAPGQGLEWMGQIYPENADTNYSGKFKGRVTITADKSTSTAYMELSSLRSEDTAVYFCARGGFDYWGQGTLVTVSS VL: DIQMTQSPSSLSASVGDRVTITCRASENIYSNLAWYQQKPGKAPKLLIYTATNLAEGVPSRFSGSGSGTDFTLTISSLQPEDFATYYCQHFYGILYTFGQGTRLEIKR
5.02 | 4.73 | 6.19e+06 | 0.0245 | 3.02 | 15.7 | 0.00125 | 79700 | BGAm1371 (antibody, V domains shown, assays detect or capture it with anti-human IgG; also called parental mouse clone; murine parental antibody of BGAh9179) VH: QVQLKQSGAELVKPGASVKLSCTASGFNIKDTYIHWVKQRPEQGLEWIGRIDPANGNTMFASEFQGKATITAYTSSNTAYMQLSSLTSGDTAVYYCARSKIHYDYDEGFAYWGQGTLVTVSS VL: NIVLTQSPPSLAVSLGQRATVSCRASESVDDYGYSFLHWYQQKPGQPPKLLIYRASNLESGIPARFSGSGSRTDFTLTINPVETDDVATYYCQQSNQNPRTFGGGTKLEIK
 | 6.27 | 7.36e+06 | 0.0551 | 3 | 24.6 | 0.0018 | 73500 | BGAm1823 (antibody, V domains shown, assays detect or capture it with anti-human IgG; also called murine parental antibody of BGAh9239) VH: EVQLQQSGAELVKPGASVKISCKASGYAFSIYWMNWVKQRPGKGLEWIGQIYPENGDTNYNGKFKGKATLTADKSSSTAYMHLSSLTSEDSAVYFCARGGFDYWGQGTTLTVSS VL: NIVMTQSPASLSASVGETVTITCRASENIYSNLAWYQQKQGKSPQLLVYTATNLADGVPSRFSGSGSGTQFSLKINSLQPEDFGSYYCQHFYGILYTFGSGTRLEIK

More lines, now with the values behind:

Binder | EC50 [1] [nM] | EC50 [2] [nM] | Emax (MFI) [2] [MFI] | EC50 [3] [nM] | Emax (A450) [3] [A450] | Kd [4] [nM] | koff [4] [s⁻¹] | kon [4] [M⁻¹ s⁻¹]
BGA2354 (antibody, human IgG1, lambda, V domains shown, also called M047 (Bayer; BAY1895344)) VH: EVQLLESGGGLVQPGGSLRLSCAASGFTFRTSGMHWVRQAPGKGLEWVAVISYDGSNKYYADSVKGRFTISRDNSKNTLYLQMNSLRAEDTAVYYCARESPGYDFEYWGQGTLVTVSS VL: not shown | 0.34 |  |  |  |  |  |  | 
BGAh9179 (antibody, human IgG1, kappa, V domains shown, also called BGA9179; humanized antibody developed from BGAm1371) VH: QVQLVQSGAEVKKPGASVKVSCKASGYTITDTYIHWVRQAPGQGLEWMGRIDPAEGNTMFASEFQGRVTMTADTSTSTVYMELSSLRSEDTAVYYCARSKIHYDYDEGFAYWGQGTLVTVSS VL: DIVLTQSPDSLAVSLGERATINCRASESVDDYGYSFLHWYQQKPGQPPKLLIYRASNLESGVPDRFSGSGSGTDFTLTISSLQAEDVAVYYCQQSNQNPRTFGGGTKVEIKR |  | 8.45 | 6.25e+06 | 0.0469 | 2.95 | 20.6 | 0.00172 | 83700
BGA1421 (antibody, human IgG1, kappa, V domains shown, also called bemarituzumab; comparator antibody alone (un-conjugated)) VH: QVQLVQSGAEVKKPGSSVKVSCKASGYIFTTYNVHWVRQAPGQGLEWIGSIYPDNGDTSYNQNFKGRATITADKSTSTAYMELSSLRSEDTAVYYCARGDFAYWGQGTLVTVSS VL: DIQMTQSPSSLSASVGDRVTITCKASQGVSNDVAWYQQKPGKAPKLLIYSASYRYTGVPSRFSGSGSGTDFTFTISSLQPEDIATYYCQQHSTTPYTFGQGTKLEIKR | 0.49 |  |  |  |  |  |  | 
